US20120034160A1 (AbbVie / Abbott, published 2012)

T1: Recombinant Human IL-17 (human, UniProt Q16552 20-155, limits assumed)
T1 construct: bought reagent
T1 sequence (looked up): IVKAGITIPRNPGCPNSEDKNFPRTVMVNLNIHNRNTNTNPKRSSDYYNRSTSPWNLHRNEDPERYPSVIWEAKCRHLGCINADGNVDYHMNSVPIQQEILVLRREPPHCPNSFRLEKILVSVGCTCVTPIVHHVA


Columns and labels:
[1] = biological target: T2, Recombinant Human IL-1β (human, UniProt P01584 117-269); assay: Biacore SPR; C-terminal VD
T2 construct: bought reagent; also called IL-1B
Protocol: (§1) The BIACORE assay (Biacore, Inc, Piscataway, N.J.) determines the affinity of antibodies or DVD-Ig with kinetic measurements of on-rate and off-rate constants. Binding of antibodies or DVD-Ig to a target antigen (for example, a purified recombinant target antigen) was determined by surface plasmon resonance-based measurements with a Biacore® 1000 or 3000 instrument (Biacore® AB, Uppsala, Sweden) using running HBS-EP (10 mM HEPES [pH 7.4], 150 mM NaCl, 3 mM EDTA, and 0.005% surfactant P20) at 25° C. All chemicals were obtained from Biacore® AB (Uppsala, Sweden) or otherwise from a different source as described in the text. For example, approximately 5000 RU of goat anti-mouse IgG, (Fcγ), fragment specific polyclonal antibody (Pierce Biotechnology Inc, Rockford, Ill.) diluted in 10 mM sodium acetate (pH 4.5) was directly immobilized across a CM5 research grade biosensor chip using a standard amine coupling kit according to manufacturer's instructions and procedures at 25 μg/ml. Unreacted moieties on the biosensor surface were blocked with ethanolamine. Modified carboxymethyl dextran surface in flowcell 2 and 4 was used as a reaction surface. Unmodified carboxymethyl dextran without goat anti-mouse IgG in flow cell 1 and 3 was used as the reference surface. For kinetic analysis, rate equations derived from the 1:1 Langmuir binding model were fitted simultaneously to association and dissociation phases of all eight injections (using global fit analysis) with the use of Biaevaluation 4.0.1 software. Purified antibodies or DVD-Ig were diluted in HEPES-buffered saline for capture across goat anti-mouse IgG specific reaction surfaces. Antibodies or DVD-Ig to be captured as a ligand (25 μg/ml) were injected over reaction matrices at a flow rate of 5 μl/min. The association and dissociation rate constants, kₒₙ (M⁻¹s⁻¹) and koff (s⁻¹) were determined under a continuous flow rate of 25 μl/min. Rate constants were derived by making kinetic binding measurements at different antigen concentrations ranging from 10−200 nM. The equilibrium dissociation constant (M) of the reaction between antibodies or DVD-Igs and the target antigen was then calculated from the kinetic rate constants by the following formula: KD=koff/kₒₙ. Binding was recorded as a function of time and kinetic rate constants are calculated.

[2] = biological target: T1, Recombinant Human IL-17; assay: Biacore SPR; N-terminal VD
Protocol: as §1

| Binder | Kd [1] [nM] | koff [1] [s⁻¹] | kon [1] [M⁻¹ s⁻¹] | Kd [2] [nM] | koff [2] [s⁻¹] | kon [2] [M⁻¹ s⁻¹] |
| --- | --- | --- | --- | --- | --- | --- |
| DVD1263 (bispecific antibody, human IgG1, kappa, V1 wt hIgG1, V2 kappa; also called DVD1263H; DVD1263L) heavy: not shown light: DIQMTQSPSSLSASVGDRVTITCRASSGIISYIDWFQQKPGKAPKRLIYATFDLASGVPSRFSGSGSGTDYTLTISSLQPEDFATYYCRQVGSYPETFGQGTKLEIKRTVAAPDIQMTQSPSSLSASVGDRVTITCRASGNIHNYLTWYQQTPGKAPKLLIYNAKTLADGVPSRFSGSGSGTDYTFTISSLQPEDIATYYCQHFWSIPYTFGQGTKLQITRTVAAPSVFIFPPSDEQLKSGTASVVCLLNNFYPREAKVQWKVDNALQSGNSQESVTEQDSKDSTYSLSSTLTLSKADYEKHKVYACEVTHQGLSSPVTKSFNRGEC | 0.17 | 0.00015 | 890000 | 0.061 | 7.8e-06 | 130000 |
| DVD1265 (bispecific antibody, human IgG1, kappa, V1 wt hIgG1, V2 kappa; also called DVD1265H; DVD1265L) heavy: not shown light: DIQMTQSPSSLSASVGDRVTITCRASSGIISYIDWFQQKPGKAPKRLIYATFDLASGVPSRFSGSGSGTDYTLTISSLQPEDFATYYCRQVGSYPETFGQGTKLEIKRTVAAPDIQMTQSPSSLSASVGDRVTITCRASGNIHNYLTWYQQTPGKAPKLLIYNAKTLADGVPSRFSGSGSGTDYTFTISSLQPEDIATYYCQHFWSIPYTFGQGTKLQITRTVAAPSVFIFPPSDEQLKSGTASVVCLLNNFYPREAKVQWKVDNALQSGNSQESVTEQDSKDSTYSLSSTLTLSKADYEKHKVYACEVTHQGLSSPVTKSFNRGEC | 0.088 | 0.0003 | 3.4e+06 | 0.096 | 1.1e-05 | 120000 |
| DVD1267 (bispecific antibody, human IgG1, kappa, DVD-Ig, outer AB273, inner AB270, linker set 1; V1 wt hIgG1, V2 kappa; also called DVD1267H; DVD1267L) heavy: not shown light: DIQMTQSPSSLSASVGDRVTITCRASSGIISYIDWFQQKPGKAPKRLIYATFDLASGVPSRFSGSGSGTDYTLTISSLQPEDFATYYCRQVGSYPETFGQGTKLEIKRTVAAPDTQVTQSPSSLSASVGDRVTITCITSTDIDVDMNWYQQKPGKPPKLLISQGNTLRPGVPSRFSSSGSGTDFTFTISSLQPEDFATYYCLQSDNLPLTFGQGTKLEIKRTVAAPSVFIFPPSDEQLKSGTASVVCLLNNFYPREAKVQWKVDNALQSGNSQESVTEQDSKDSTYSLSSTLTLSKADYEKHKVYACEVTHQGLSSPVTKSFNRGEC | 1.1 | 0.00041 | 370000 | ≤ 0.066 | ≤ 1e-05 | 150000 |
| DVD1271 (bispecific antibody, human IgG1, kappa, DVD-Ig, outer AB273, inner AB272, linker set 1; V1 wt hIgG1, V2 kappa; also called DVD1271H; DVD1271L) heavy: not shown light: DIQMTQSPSSLSASVGDRVTITCRASSGIISYIDWFQQKPGKAPKRLIYATFDLASGVPSRFSGSGSGTDYTLTISSLQPEDFATYYCRQVGSYPETFGQGTKLEIKRTVAAPETTVTQSPSSLSASVGDRVTITCITSTDIDVDMNWYQQKPGKPPKLLISQGNTLRPGVPSRFSSSGSGTDFTFTISSLQPEDFATYYCLQSDNLPLTFGQGTKLEIKRTVAAPSVFIFPPSDEQLKSGTASVVCLLNNFYPREAKVQWKVDNALQSGNSQESVTEQDSKDSTYSLSSTLTLSKADYEKHKVYACEVTHQGLSSPVTKSFNRGEC | 2.2 | 0.00071 | 320000 | 0.11 | 1.2e-05 | 110000 |
| DVD1277 (bispecific antibody, human IgG1, kappa, DVD-Ig, outer AB274, inner AB270, linker set 1; V1 wt hIgG1, V2 kappa; also called DVD1277H; DVD1277L) heavy: not shown light: EIVLTQSPDFQSVTPKEKVTITCRASQDIGSELHWYQQKPDQPPKLLIKYASHSTSGVPSRFSGSGSGTDFTLTINGLEAEDAGTYYCHQTDSLPYTFGPGTKVDIKRTVAAPDTQVTQSPSSLSASVGDRVTITCITSTDIDVDMNWYQQKPGKPPKLLISQGNTLRPGVPSRFSSSGSGTDFTFTISSLQPEDFATYYCLQSDNLPLTFGQGTKLEIKRTVAAPSVFIFPPSDEQLKSGTASVVCLLNNFYPREAKVQWKVDNALQSGNSQESVTEQDSKDSTYSLSSTLTLSKADYEKHKVYACEVTHQGLSSPVTKSFNRGEC | 2.1 | 0.00049 | 230000 | 0.16 | 2.2e-05 | 130000 |
| DVD1281 (bispecific antibody, human IgG1, kappa, DVD-Ig, outer AB274, inner AB272, linker set 1; V1 wt hIgG1, V2 kappa; also called DVD1281H; DVD1281L) heavy: not shown light: EIVLTQSPDFQSVTPKEKVTITCRASQDIGSELHWYQQKPDQPPKLLIKYASHSTSGVPSRFSGSGSGTDFTLTINGLEAEDAGTYYCHQTDSLPYTFGPGTKVDIKRTVAAPETTVTQSPSSLSASVGDRVTITCITSTDIDVDMNWYQQKPGKPPKLLISQGNTLRPGVPSRFSSSGSGTDFTFTISSLQPEDFATYYCLQSDNLPLTFGQGTKLEIKRTVAAPSVFIFPPSDEQLKSGTASVVCLLNNFYPREAKVQWKVDNALQSGNSQESVTEQDSKDSTYSLSSTLTLSKADYEKHKVYACEVTHQGLSSPVTKSFNRGEC | 2 | 0.00058 | 280000 | 0.1 | 2e-05 | 200000 |
| DVD1269 (bispecific antibody, human IgG1, kappa, DVD-Ig, outer AB273, inner AB271, linker set 1; V1 wt hIgG1, V2 kappa; also called DVD1269H; DVD1269L) heavy: not shown light: DIQMTQSPSSLSASVGDRVTITCRASSGIISYIDWFQQKPGKAPKRLIYATFDLASGVPSRFSGSGSGTDYTLTISSLQPEDFATYYCRQVGSYPETFGQGTKLEIKRTVAAPDTVVTQSPAFLSVTPGEKVTITCITSTDIDVDMNWYQQKPDQPPKLLISQGNTLRPGVPSRFSSSGSGTDFTFTISSLEAEDAATYYCLQSDNLPLTFGQGTKLEIKRTVAAPSVFIFPPSDEQLKSGTASVVCLLNNFYPREAKVQWKVDNALQSGNSQESVTEQDSKDSTYSLSSTLTLSKADYEKHKVYACEVTHQGLSSPVTKSFNRGEC | 1.1 | 0.00043 | 400000 | 0.032 | 5e-06 | 160000 |
| DVD1279 (bispecific antibody, human IgG1, kappa, DVD-Ig, outer AB274, inner AB271, linker set 1; V1 wt hIgG1, V2 kappa; also called DVD1279H; DVD1279L) heavy: not shown light: EIVLTQSPDFQSVTPKEKVTITCRASQDIGSELHWYQQKPDQPPKLLIKYASHSTSGVPSRFSGSGSGTDFTLTINGLEAEDAGTYYCHQTDSLPYTFGPGTKVDIKRTVAAPDTVVTQSPAFLSVTPGEKVTITCITSTDIDVDMNWYQQKPDQPPKLLISQGNTLRPGVPSRFSSSGSGTDFTFTISSLEAEDAATYYCLQSDNLPLTFGQGTKLEIKRTVAAPSVFIFPPSDEQLKSGTASVVCLLNNFYPREAKVQWKVDNALQSGNSQESVTEQDSKDSTYSLSSTLTLSKADYEKHKVYACEVTHQGLSSPVTKSFNRGEC | 1.4 | 0.00045 | 320000 | 0.12 | 2.3e-05 | 190000 |
| DVD1273 (bispecific antibody, human IgG1, kappa, V1 wt hIgG1, V2 kappa; also called DVD1273H; DVD1273L) heavy: not shown light: EIVLTQSPDFQSVTPKEKVTITCRASQDIGSELHWYQQKPDQPPKLLIKYASHSTSGVPSRFSGSGSGTDFTLTINGLEAEDAGTYYCHQTDSLPYTFGPGTKVDIKRTVAAPDIQMTQSPSSLSASVGDRVTITCRASGNIHNYLTWYQQTPGKAPKLLIYNAKTLADGVPSRFSGSGSGTDYTFTISSLQPEDIATYYCQHFWSIPYTFGQGTKLQITRTVAAPSVFIFPPSDEQLKSGTASVVCLLNNFYPREAKVQWKVDNALQSGNSQESVTEQDSKDSTYSLSSTLTLSKADYEKHKVYACEVTHQGLSSPVTKSFNRGEC | 0.27 | 0.00019 | 690000 | 0.2 | 2.2e-05 | 110000 |
| DVD1283 (bispecific antibody, human IgG1, kappa, V1 wt hIgG1, V2 kappa; also called DVD1283H; DVD1283L) heavy: not shown light: EIVLTQSPDFQSVTPKEKVTITCRASQNIGSELHWYQQKPDQSPKLLIKYASHSISGVPSRFSGSGSGTDFTLTINGLEAEDAATYYCHQSDTLPHTFGQGTKVDIKRTVAAPDIQMTQSPSSLSASVGDRVTITCRASGNIHNYLTWYQQTPGKAPKLLIYNAKTLADGVPSRFSGSGSGTDYTFTISSLQPEDIATYYCQHFWSIPYTFGQGTKLQITRTVAAPSVFIFPPSDEQLKSGTASVVCLLNNFYPREAKVQWKVDNALQSGNSQESVTEQDSKDSTYSLSSTLTLSKADYEKHKVYACEVTHQGLSSPVTKSFNRGEC | 0.1 | 0.00026 | 2.5e+06 | 0.46 | 5.8e-05 | 130000 |
| DVD1275 (bispecific antibody, human IgG1, kappa, V1 wt hIgG1, V2 kappa; also called DVD1275H; DVD1275L) heavy: not shown light: EIVLTQSPDFQSVTPKEKVTITCRASQDIGSELHWYQQKPDQPPKLLIKYASHSTSGVPSRFSGSGSGTDFTLTINGLEAEDAGTYYCHQTDSLPYTFGPGTKVDIKRTVAAPDIQMTQSPSSLSASVGDRVTITCRASGNIHNYLTWYQQTPGKAPKLLIYNAKTLADGVPSRFSGSGSGTDYTFTISSLQPEDIATYYCQHFWSIPYTFGQGTKLQITRTVAAPSVFIFPPSDEQLKSGTASVVCLLNNFYPREAKVQWKVDNALQSGNSQESVTEQDSKDSTYSLSSTLTLSKADYEKHKVYACEVTHQGLSSPVTKSFNRGEC | 0.15 | 0.00011 | 760000 | 0.15 | 2.1e-05 | 140000 |
